Laboratory results from the RNAGym collection of RNA variant scans (doi:10.7554/elife.80360).

B1: HDV Ribozyme (parent)
chain: GGCCGGCAUGGUCCCAGCCUCCUCGCUGGCGCCGGCUGGGCAACAUUCCGAGGGGACCGUCCCCUCGGUAAUGGCGAAUGGGACCCA

Variants of: B1
Assay: self-cleavage, relative activity (ratio to wild type); higher = more cleavage; co-transcriptional

Variant | self-cleavage
G17C C63G | 0.244
G17C C63A | 0.306
C18A A43U | 0.0339
C18A A43C | 0.0462
C18A A43G | 0.192
G17U U65C | 0.332
G17U U65G | 0.541
G17U U65A | 0.415
C18A C19U | 0.0339
G17C U60A | 0.575
G17C C86U | 0.237
G17C C22G | 0.208
G17C C22A | 0
G17A U60C | 0.522
C18A A77G | 0.0354
G17C G80C | 0.0906
G17U G73A | 0.233
G17U G73U | 0.222
G17U G73C | 0.145
G17C C57A | 0.437
C18A G68A | 0.237
C18A G68C | 0.212
G17C C58G | 0.32
G17C C58U | 0.302

Variant | self-cleavage
G17C G74C | 0
C18A C44G | 0.193
C18A C44U | 0.219
C18A C44A | 0.17
G17U C22G | 0.095
G17U C22U | 0.0959
G17U G40A | 0.246
G17A U27A | 0.609
G17A U27C | 0.309
G17A U27G | 0.485
G17U C36G | 0
G17U C36A | 0.0665
C18A G54U | 0.135
C18A G54A | 0.0779
G17C G31U | 0.0831
G17C G31A | 0.0652
G17C U27A | 0.222
G17C C61U | 0.383
C18A G76U | 0.228
C18A G76C | 0.14
G17U G74U | 0.217
G17U G74C | 0.0415
G17C G55A | 0.402
G17C G55U | 0.208

Variant | self-cleavage
G17C G55C | 0.262
G17C C44G | 0.0723
G17C C44A | 0
G17C C30G | 0.684
G17C C30A | 0.342
G17C C30U | 0.655
G17U G76U | 0.749
C18A C49U | 0.133
G17U C44A | 0.323
G17U C44U | 0.146
G17U C44G | 0.222
C18A A45U | 0.172
C18A A45G | 0.0594
G17U U72A | 0.119
G17A U20A | 0.253
G17C C18G | 0
G17C C18U | 0.0923
G17A G67U | 0.776
C18A C30U | 0
G17C C33G | 0
G17C C33A | 0.0437
G17U C24U | 0.146
G17U C24G | 0.128
G17U C24A | 0.116

Variant | self-cleavage
G17U G80U | 0.156
G17U G80C | 0.102
G17U G80A | 0.272
G17U G31A | 0.107
G17U C32U | 0.125
C18A G39U | 0.0369
C18A G39C | 0.0755
C18A G39A | 0.0739
G17A U23A | 0.686
C18A C84G | 0.0437
C18A C84A | 0.151
G17A U69C | 0.786
G17A U69G | 0.906
G17U A78U | 0.0739
G17U A78C | 0.131
C18A G81C | 0.163
C18A G81A | 0.0755
C18A G81U | 0.0817
C18A C58U | 0.196
C18A C58G | 0
G17C G54C | 0.447
C18A G80C | 0
C18A G80A | 0.0963
C18A G80U | 0.051

Variant | self-cleavage
G17A G68A | 0.76
G17A G68U | 0.659
G17U C61A | 0.456
G17U C61G | 0.424
G17C U37G | 0
G17C U37C | 0.344
G17C U37A | 0
G17C U46C | 0.0791
G17U C48U | 0.458
G17U U69G | 0.534
G17U U69A | 0.306
C18A G53A | 0.0652
G17A G82A | 0.272
G17A G82U | 0.346
G17A G82C | 0.166
G17C G81U | 0.193
C18A A83C | 0.0831
C18A A83U | 0.237
G17C C75G | 0.111
G17C C75A | 0.0536
G17A G74C | 0.0346
G17A G74U | 0.197
C18A A71G | 0.0739
C18A A71C | 0.0504

Variant | self-cleavage
C18A C36U | 0.0386
G17U U47G | 0.35
C18A C75U | 0.0665
G17C U72C | 0
G17C U72A | 0
G17C U72G | 0.161
G17U A45U | 0.244
G17U A45C | 0.161
G17U A45G | 0.525
G17U A43C | 0.203
G17U A43U | 0.185
G17C C49U | 0.332
G17A G59U | 0.852
G17A G81U | 0.182
G17A G81C | 0.204
G17A U65G | 0.773
G17A U65C | 0.671
G17A U65A | 0.752
C18A U47C | 0.0536
G17U C64A | 0.601
C18A A51G | 0.0554
C18A A51U | 0.0378
G17U U23C | 0.219
G17U U23A | 0.397

Variant | self-cleavage
G17A G73C | 0.0615
C18A C63A | 0.0692
C18A C63U | 0.145
C18A C66A | 0.208
C18A C66U | 0.0779
G17C G67C | 0.289
G17C G53C | 0.178
G17C G53U | 0.298
G17C G53A | 0.281
C18A G74U | 0.0528
C18A G74C | 0.0791
C18A G74A | 0.0674
G17U C86A | 0.369
G17C G34A | 0.102
G17C G34U | 0.0415
C18A A70G | 0
C18A A70C | 0.128
G17C C84A | 0.231
G17U A87C | 0.389
G17C G82A | 0.147
G17C G82U | 0
C18A U60A | 0.135
C18A U60C | 0
